Test results from article PMC4609494.

Assays:
[1] = biological target: TNF receptor-2 (TNFR-2), rat (rat) (UniProt Q80WY6)
[2] = biological target: TNF receptor-2 (TNFR-2), rat (rat) (UniProt Q80WY6); remark: listed apart in the source
[3] = biological target: TNF receptor-1 (TNFR-1), rat (rat) (UniProt P22934)
[4] = biological target: TNF receptor-1 (TNFR-1), rat (rat) (UniProt P22934); remark: listed apart in the source

Chain of UniProt Q80WY6 (Q80WY6 23-474): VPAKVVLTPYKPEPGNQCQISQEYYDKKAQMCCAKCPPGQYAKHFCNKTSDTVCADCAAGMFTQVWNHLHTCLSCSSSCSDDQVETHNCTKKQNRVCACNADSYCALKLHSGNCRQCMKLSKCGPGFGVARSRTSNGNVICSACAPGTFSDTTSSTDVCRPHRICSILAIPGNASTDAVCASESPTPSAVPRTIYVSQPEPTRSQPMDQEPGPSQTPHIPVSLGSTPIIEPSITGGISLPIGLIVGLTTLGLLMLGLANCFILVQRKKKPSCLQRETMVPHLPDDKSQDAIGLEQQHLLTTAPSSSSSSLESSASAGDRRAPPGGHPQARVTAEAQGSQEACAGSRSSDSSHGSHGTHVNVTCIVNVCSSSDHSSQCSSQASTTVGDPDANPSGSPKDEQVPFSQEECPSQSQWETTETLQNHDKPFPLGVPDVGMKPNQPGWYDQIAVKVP
Chain of UniProt P22934 (P22934 30-461): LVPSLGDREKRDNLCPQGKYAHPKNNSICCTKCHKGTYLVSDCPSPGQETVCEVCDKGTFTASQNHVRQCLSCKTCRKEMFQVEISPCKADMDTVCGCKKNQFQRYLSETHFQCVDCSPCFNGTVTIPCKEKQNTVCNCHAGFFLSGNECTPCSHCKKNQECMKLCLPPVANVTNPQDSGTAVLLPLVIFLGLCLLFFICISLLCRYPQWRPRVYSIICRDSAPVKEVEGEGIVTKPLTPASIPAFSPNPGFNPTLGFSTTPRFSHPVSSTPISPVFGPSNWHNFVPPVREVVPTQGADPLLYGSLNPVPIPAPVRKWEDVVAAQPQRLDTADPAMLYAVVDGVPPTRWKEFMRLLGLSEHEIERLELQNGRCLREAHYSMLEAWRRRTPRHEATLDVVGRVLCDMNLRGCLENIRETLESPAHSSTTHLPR

increase of the voltage-gated sodium channel current I Na(V) in small rat DRG neurons, whole-cell patch clamp, repetitive depolarization to 0 mV, D145 10 pg (dose-dependent over 1-100 pg) [1]	increase of the TTX-resistant NaV1.8 current I NaV(1.8) in small rat DRG neurons, whole-cell patch clamp, repetitive depolarization to 0 mV, D145 100 pg, 300 s after treatment [2]	increase of the voltage-gated sodium channel current I Na(V) in small rat DRG neurons, whole-cell patch clamp, repetitive depolarization to 0 mV, R32W 10 pg (dose-dependent over 1-100 pg) [3]	increase of the TTX-resistant NaV1.8 current I NaV(1.8) in small rat DRG neurons, whole-cell patch clamp, repetitive depolarization to 0 mV, R32W 100 pg, 300 s after treatment [4]	Substance
44.9%	14.5%			TNF mutant protein D145 (D143N/A145R), selective TNFR-2 agonist (ligand)
		27.2%	18.9%	TNF mutant protein R32W (R32W/S86T), selective TNFR-1 agonist (ligand)
